Patent publication US6391637
One block for each binder: values may come before it.

Assays:
[1] = molecular target: T1, CD40/Fc fusion protein (human, UniProt P25942 21-193); assay: BIAcore biosensor; CD40/Fc captured on the chip; first experiment; K2 (site 2)
Protocol: (§1) This example illustrates the binding affinities of several different CD40-L constructs. Affinity experiments were conducted by biospecific interaction analysis (BIA) using a biosensor, an instrument that combines a biological recognition mechanism with a sensing device or transducer. An exemplary biosensor is BIAcore™, from Pharmacia Biosensor AB (Uppsala, Sweden; see Fagerstam L.G., Techniques in Protein Chemistry II, ed. J. J. Villafranca, Acad. Press, NY, 1991). BIAcore™ uses the optical phenomenon surface plasmon resonance (Kretschmann and Raether, Z. Naturforschung, Teil. A 23:2135, 1968) to monitor the interaction of two biological molecules. Molecule pairs having affinity constants in the range 10^5 to 10^10 M^-1, and association rate constants in the range of 10^3 to 10^6 M^-1s^-1, are suitable for characterization with BIAcore™.
(§2) The biosensor chips were coated with goat anti-human IgG_1 Fc, which was used to bind CD40/Fc (prepared as described in Example 1) to the chip. The different constructs of CD40-L were then added at increasing concentrations; the chip was regenerated between the different constructs by the addition of sodium hydroxide. Two separate experiments were performed. […] The resultant data were analyzed to determine the affinity and association rate constants of the different CD40-L constructs. […]
T1 sequence (P25942 21-193): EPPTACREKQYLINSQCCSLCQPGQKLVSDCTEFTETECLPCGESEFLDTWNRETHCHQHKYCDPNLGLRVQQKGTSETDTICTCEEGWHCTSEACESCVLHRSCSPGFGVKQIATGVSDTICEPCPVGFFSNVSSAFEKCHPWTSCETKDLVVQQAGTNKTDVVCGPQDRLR

[2] = molecular target: T1, CD40/Fc fusion protein; assay: BIAcore biosensor; CD40/Fc captured on the chip; first experiment; K1 (site 1)
Protocol: as §1, §2

[3] = molecular target: T1, CD40/Fc fusion protein; assay: biosensor assay substantially as in Example 22 (CD40/Fc captured on the chip); Affinity Ka
[4] = molecular target: T2, CD40/Fc fusion protein (human, UniProt P25942 21-193); assay: BIAcore biosensor; CD40/Fc captured on the chip; first experiment; K2 (site 2)
T2 construct: extracellular domain; also called sCD40/Fc; C40/Fc; not shown: remainder of the human IgG1 Fc region (hinge onwards), joined at a Bgl II site
Protocol: as §1, §2
T2 sequence (P25942 21-193): as above

[5] = molecular target: T2, CD40/Fc fusion protein; assay: BIAcore biosensor; CD40/Fc captured on the chip; first experiment; K1 (site 1)
Protocol: as §1, §2

Ka [1]: 4e+07 M⁻¹
Ka [2]: 7e+09 M⁻¹
B1: dimeric murine CD40-L (Fc fusion, prepared substantially as in Example 14) (Fc fusion)
chain: DKVEEEVNLHEDFVFIKKLKRCNKGEGSLSLLNCEEMRRQFEDLVKDITLNKEEKKENSFEMQRGDEDPQIAAHVVSEANSNAASVLQWAKKGYYTMKSNLVMLENGKQLTVKREGLYYVYTQVTFCSNREPSSQRPFIVGLWLKPSSGSERILLKAANTHSSSQLCEQQSVHLGGVFELQAGASVFVNVTEASQVIHRVGFSSFGLLKL

Ka [3]: 1.8e+09 M⁻¹
B2: CD40 ligand/zipper domain fusion protein mutant 194.W (ligand, not shown: a dimerising Fc or GST; small tags and cut ends)
chain: MQKGDQNPQIAAHVISEASSKTTSVLQWAEKGYYTMSNNLVTLENGKQLTVKRQGLYYIYAQVTFCSNREASSQAPFIASLWLKSPGRFERILLRAANTHSSAKPCGQQSIHLGGVFELQPGASVFVNVTDPSQVSHGTGFTSFGLLKL

Ka [4]: 7e+08 M⁻¹
Ka [5]: 1.6e+11 M⁻¹
B3: CD40-L/FC2 soluble human CD40-L/Fc fusion protein (Fc fusion, not shown: a dimerising Fc or GST; small tags and cut ends)
chain: DKIEDERNLHEDFVFMKTIQRCNTGERSLSLLNCEEIKSQFEGFVKDIMLNKEETKKENSFEMQKGDQNPQIAAHVISEASSKTTSVLQWAEKGYYTMSNNLVTLENGKQLTVKRQGLYYIYAQVTFCSNREASSQAPFIASLCLKSPGRFERILLRAANTHSSAKPCGQQSIHLGGVFELQPGASVFVNVTDPSQVSHGTGFTSFGLLKL
notes: also called dimeric human CD40-L; Human Dimer
